Assay results reported in publication PMC9605926, “Safety of [^177Lu]Lu-NeoB treatment: a preclinical study characterizing absorbed dose and acute, early, and late organ toxicity” (European Journal of Nuclear Medicine and Molecular Imaging, 2022).

Test: Dosimetry: absorbed organ dose from biodistribution data (MIRD scheme, RADAR mouse phantom)
Assay type: in vivo
Experimental: Data obtained during the in vivo biodistribution studies were used to calculate the absorbed dose for each organ according to the MIRD-scheme. The time integrated activity concentration coefficients were determined by fitting exponential curves to the activity concentration data points at 1, 4, 24, 48, 96, and 168 h p.i. and integrating these curves over time. The least squares fitting analysis was performed with GraphPad Prism software. The S-values for lutetium-177 were based on the 24 g realistic RADAR mouse phantom. The standard organ weights of this model were used to convert from activity concentration to activity. With this model, the absorbed dose in most organs could be calculated. S-values for organs not included in the mouse model, such as adrenal glands and prostate, were determined with the spherical node model within the Olinda/EXM code.
The absorbed doses determined from the biodistribution assay were extrapolated to the dose the animals received during the radiotoxicity study. Here, the animals received 3 consecutive injections with a 7-day interval.

[1] = female, 3× 120 MBq/1200 pmol, extrapolated cumulative
[2] = male, 3× 40 MBq/400 pmol, extrapolated cumulative
[3] = male, 3× 80 MBq/800 pmol, extrapolated cumulative
[4] = male, 3× 120 MBq/1200 pmol, extrapolated cumulative

CC(C)CC(CC(C)C)NC(=O)[C@H](Cc1cnc[nH]1)NC(=O)CNC(=O)[C@@H](NC(=O)[C@H](C)NC(=O)[C@H](Cc1c[nH]c2ccccc12)NC(=O)[C@H](CCC(N)=O)NC(=O)[C@@H](Cc1ccccc1)NC(=O)COCC(=O)Nc1ccc(CNC(=O)CN2CCN(CC(=O)O)CCN(CC(=O)O)CCN(CC(=O)O)CC2)cc1)C(C)C [[^177Lu]Lu-NeoB, metal not drawn]
Absorbed dose adrenal glands (female, 1× 120 MBq/1200 pmol): 0.82 Gy | Absorbed dose brain (female, 1× 120 MBq/1200 pmol): 0.12 Gy | Absorbed dose colon wall (female, 1× 120 MBq/1200 pmol): 1.81 Gy | Absorbed dose heart wall (female, 1× 120 MBq/1200 pmol): 0.42 Gy | Absorbed dose kidneys (female, 1× 120 MBq/1200 pmol): 5.24 Gy | Absorbed dose liver (female, 1× 120 MBq/1200 pmol): 4.37 Gy | Absorbed dose lungs (female, 1× 120 MBq/1200 pmol): 0.62 Gy | Absorbed dose mammary fat pad (female, 1× 120 MBq/1200 pmol): 1.11 Gy | Absorbed dose osteogenic cells (female, 1× 120 MBq/1200 pmol): 0.07 Gy | Absorbed dose ovaries (female, 1× 120 MBq/1200 pmol): 0.53 Gy | Absorbed dose pancreas (female, 1× 120 MBq/1200 pmol): 3.30 Gy | Absorbed dose small intestine (female, 1× 120 MBq/1200 pmol): 1.80 Gy | Absorbed dose spleen (female, 1× 120 MBq/1200 pmol): 0.68 Gy | Absorbed dose stomach wall (female, 1× 120 MBq/1200 pmol): 1.31 Gy | Absorbed dose total body (female, 1× 120 MBq/1200 pmol): 0.65 Gy | Absorbed dose urinary bladder (female, 1× 120 MBq/1200 pmol): 0.05 Gy | Absorbed dose adrenal glands [1]: 2.47 Gy | Absorbed dose brain [1]: 0.35 Gy | Absorbed dose colon wall [1]: 5.43 Gy | Absorbed dose heart wall [1]: 1.27 Gy | Absorbed dose kidneys [1]: 15.71 Gy | Absorbed dose liver [1]: 13.11 Gy | Absorbed dose lungs [1]: 1.87 Gy | Absorbed dose mammary fat pad [1]: 3.34 Gy | Absorbed dose osteogenic cells [1]: 0.21 Gy | Absorbed dose ovaries [1]: 1.60 Gy | Absorbed dose pancreas [1]: 9.89 Gy | Absorbed dose small intestine [1]: 5.40 Gy | Absorbed dose spleen [1]: 2.05 Gy | Absorbed dose stomach wall [1]: 3.94 Gy | Absorbed dose total body [1]: 1.95 Gy | Absorbed dose urinary bladder [1]: 0.15 Gy | Absorbed dose adrenal glands (male, 1× 40 MBq/400 pmol): 0.58 Gy | Absorbed dose brain (male, 1× 40 MBq/400 pmol): 0.05 Gy | Absorbed dose colon wall (male, 1× 40 MBq/400 pmol): 0.81 Gy | Absorbed dose heart wall (male, 1× 40 MBq/400 pmol): 0.25 Gy | Absorbed dose kidneys (male, 1× 40 MBq/400 pmol): 2.00 Gy | Absorbed dose liver (male, 1× 40 MBq/400 pmol): 2.11 Gy | Absorbed dose lungs (male, 1× 40 MBq/400 pmol): 0.35 Gy | Absorbed dose mammary fat pad (male, 1× 40 MBq/400 pmol): 0.27 Gy | Absorbed dose osteogenic cells (male, 1× 40 MBq/400 pmol): 0.03 Gy | Absorbed dose pancreas (male, 1× 40 MBq/400 pmol): 2.23 Gy | Absorbed dose prostate gland (male, 1× 40 MBq/400 pmol): 0.35 Gy | Absorbed dose small intestine (male, 1× 40 MBq/400 pmol): 0.80 Gy | Absorbed dose spleen (male, 1× 40 MBq/400 pmol): 0.50 Gy | Absorbed dose stomach wall (male, 1× 40 MBq/400 pmol): 1.50 Gy | Absorbed dose testes (male, 1× 40 MBq/400 pmol): 0.02 Gy | Absorbed dose total body (male, 1× 40 MBq/400 pmol): 0.31 Gy | Absorbed dose urinary bladder (male, 1× 40 MBq/400 pmol): 0.02 Gy | Absorbed dose adrenal glands (male, 1× 80 MBq/800 pmol): 0.54 Gy | Absorbed dose brain (male, 1× 80 MBq/800 pmol): 0.12 Gy | Absorbed dose colon wall (male, 1× 80 MBq/800 pmol): 1.21 Gy | Absorbed dose heart wall (male, 1× 80 MBq/800 pmol): 0.46 Gy | Absorbed dose kidneys (male, 1× 80 MBq/800 pmol): 3.25 Gy | Absorbed dose liver (male, 1× 80 MBq/800 pmol): 3.28 Gy | Absorbed dose lungs (male, 1× 80 MBq/800 pmol): 0.87 Gy | Absorbed dose mammary fat pad (male, 1× 80 MBq/800 pmol): 0.23 Gy | Absorbed dose osteogenic cells (male, 1× 80 MBq/800 pmol): 0.06 Gy | Absorbed dose pancreas (male, 1× 80 MBq/800 pmol): 2.31 Gy | Absorbed dose prostate gland (male, 1× 80 MBq/800 pmol): 0.68 Gy | Absorbed dose small intestine (male, 1× 80 MBq/800 pmol): 1.21 Gy | Absorbed dose spleen (male, 1× 80 MBq/800 pmol): 0.72 Gy | Absorbed dose stomach wall (male, 1× 80 MBq/800 pmol): 1.50 Gy | Absorbed dose testes (male, 1× 80 MBq/800 pmol): 0.04 Gy | Absorbed dose total body (male, 1× 80 MBq/800 pmol): 0.47 Gy | Absorbed dose urinary bladder (male, 1× 80 MBq/800 pmol): 0.04 Gy | Absorbed dose adrenal glands (male, 1× 120 MBq/1200 pmol): 0.66 Gy | Absorbed dose brain (male, 1× 120 MBq/1200 pmol): 0.15 Gy | Absorbed dose colon wall (male, 1× 120 MBq/1200 pmol): 0.93 Gy | Absorbed dose heart wall (male, 1× 120 MBq/1200 pmol): 0.68 Gy | Absorbed dose kidneys (male, 1× 120 MBq/1200 pmol): 3.21 Gy | Absorbed dose liver (male, 1× 120 MBq/1200 pmol): 5.61 Gy | Absorbed dose lungs (male, 1× 120 MBq/1200 pmol): 3.91 Gy | Absorbed dose mammary fat pad (male, 1× 120 MBq/1200 pmol): 0.49 Gy | Absorbed dose osteogenic cells (male, 1× 120 MBq/1200 pmol): 0.12 Gy | Absorbed dose pancreas (male, 1× 120 MBq/1200 pmol): 1.54 Gy | Absorbed dose prostate gland (male, 1× 120 MBq/1200 pmol): 0.37 Gy | Absorbed dose small intestine (male, 1× 120 MBq/1200 pmol): 0.94 Gy | Absorbed dose spleen (male, 1× 120 MBq/1200 pmol): 1.35 Gy | Absorbed dose stomach wall (male, 1× 120 MBq/1200 pmol): 1.38 Gy | Absorbed dose testes (male, 1× 120 MBq/1200 pmol): 0.08 Gy | Absorbed dose total body (male, 1× 120 MBq/1200 pmol): 0.66 Gy | Absorbed dose urinary bladder (male, 1× 120 MBq/1200 pmol): 0.08 Gy | Absorbed dose adrenal glands [2]: 1.74 Gy | Absorbed dose brain [2]: 0.15 Gy | Absorbed dose colon wall [2]: 2.43 Gy | Absorbed dose heart wall [2]: 0.75 Gy | Absorbed dose kidneys [2]: 6.00 Gy | Absorbed dose liver [2]: 6.33 Gy | Absorbed dose lungs [2]: 1.05 Gy | Absorbed dose mammary fat pad [2]: 0.81 Gy | Absorbed dose osteogenic cells [2]: 0.09 Gy | Absorbed dose pancreas [2]: 6.69 Gy | Absorbed dose prostate gland [2]: 1.05 Gy | Absorbed dose small intestine [2]: 2.40 Gy | Absorbed dose spleen [2]: 1.50 Gy | Absorbed dose stomach wall [2]: 4.50 Gy | Absorbed dose testes [2]: 0.06 Gy | Absorbed dose total body [2]: 0.93 Gy | Absorbed dose urinary bladder [2]: 0.06 Gy | Absorbed dose adrenal glands [3]: 1.62 Gy | Absorbed dose brain [3]: 0.36 Gy | Absorbed dose colon wall [3]: 3.63 Gy | Absorbed dose heart wall [3]: 1.38 Gy | Absorbed dose kidneys [3]: 9.75 Gy | Absorbed dose liver [3]: 9.84 Gy | Absorbed dose lungs [3]: 2.61 Gy | Absorbed dose mammary fat pad [3]: 0.69 Gy | Absorbed dose osteogenic cells [3]: 0.18 Gy | Absorbed dose pancreas [3]: 6.93 Gy | Absorbed dose prostate gland [3]: 2.04 Gy | Absorbed dose small intestine [3]: 3.63 Gy | Absorbed dose spleen [3]: 2.16 Gy | Absorbed dose stomach wall [3]: 4.50 Gy | Absorbed dose testes [3]: 0.12 Gy | Absorbed dose total body [3]: 1.41 Gy | Absorbed dose urinary bladder [3]: 0.12 Gy | Absorbed dose adrenal glands [4]: 1.99 Gy | Absorbed dose brain [4]: 0.44 Gy | Absorbed dose colon wall [4]: 2.80 Gy | Absorbed dose heart wall [4]: 2.03 Gy | Absorbed dose kidneys [4]: 9.62 Gy | Absorbed dose liver [4]: 16.84 Gy | Absorbed dose lungs [4]: 11.72 Gy | Absorbed dose mammary fat pad [4]: 1.47 Gy | Absorbed dose osteogenic cells [4]: 0.37 Gy | Absorbed dose pancreas [4]: 4.61 Gy | Absorbed dose prostate gland [4]: 1.10 Gy | Absorbed dose small intestine [4]: 2.81 Gy | Absorbed dose spleen [4]: 4.05 Gy | Absorbed dose stomach wall [4]: 4.14 Gy | Absorbed dose testes [4]: 0.23 Gy | Absorbed dose total body [4]: 1.97 Gy | Absorbed dose urinary bladder [4]: 0.24 Gy
